One series has as its system MCF7. Nature of the series: percentage of EdU-negative (G0-arrested) nuclei per well, 72 h; higher = more G0 arrest. To be noted: reference: sequence is the full UniProt precursor, the tested protein was the secreted form or ectodomain.
For a further series, the system named is hTERT-HMEC. The description is as above. To be noted: reference: sequence is the full UniProt precursor, the tested protein was the secreted form or ectodomain.
[1] abbreviates: protein concentration 0.00975 µM.
[2] abbreviates: protein concentration 0.0975 µM.
Where [3] appears, read: protein concentration 0.0205 µM.
Where [4] appears, read: protein concentration 0.0257143 µM.
Where [5] appears, read: protein concentration 0.257143 µM.

± gives the standard deviation of the averaged measurements.
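Further: secreted proteins added to cultured cells, EdU pulse at the end, nuclei found by Hoechst imaging, EdU status from nuclear versus surrounding ring intensity ratio, PBS as neutral control.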

With “MPGLRRDRLLTLLLLGALLSADLYFHLWPQVQRQLRPRERPRGCPCTGRASSLARDSAAAASDPGTIVHNFSRTEPRTEPAGGSHSGSSSKLQALFAHPLYNVPEEPPLLGAEDSLLASQEALRYYRRKVARWNRRHKMYREQMNLTSLDPPLQLRLEASWVQFHLGINRHGLYSRSSPVVSKLLQDMRHFPTISADYSQDEKALLGACDCTQIVKPSGVHLKLVLRFSDFGKAMFKPMRQQRDEETPVDFFYFIDFQRHNAEIAAFHLDRILDFRRVPPTVGRIVNVTKEILEVTKNEILQSVFFVSPASNVCFFAKCPYMCKTEYAVCGNPHLLEGSLSAFLPSLNLAPRLSVPNPWIRSYTLAGKEEWEVNPLYCDTVKQIYPYNNSQRLLNVIDMAIFDFLIGNMDRHHYEMFTKFGDDGFLIHLDNARGFGRHSHDEISILSPLSQCCMIKKKTLLHLQLLAQADYRLSDVMRESLLEDQLSPVLTEPHLLALDRRLQTILRTVEGCIVAHGQQSVIVDGPVEQLAPDSGQANLTS [Q96MK3]”, the “percentage of EdU-negative” value with MCF7 (protein concentration 0.014 µM) worked out at 24 ± 3.4%; in the series on MCF7 (protein concentration 0.14 µM) it was 30.6 ± 0.74%; in the series with hTERT-HMEC (protein concentration 0.014 µM) it was 6.29 ± 0.36%; with hTERT-HMEC (protein concentration 0.14 µM) it was 27.9 ± 9.3%.

“MPGPRRPAGSRLRLLLLLLLPPLLLLLRGSHAGNLTVAVVLPLANTSYPWSWARVGPAVELALAQVKARPDLLPGWTVRTVLGSSENALGVCSDTAAPLAAVDLKWEHNPAVFLGPGCVYAAAPVGRFTAHWRVPLLTAGAPALGFGVKDEYALTTRAGPSYAKLGDFVAALHRRLGWERQALMLYAYRPGDEEHCFFLVEGLFMRVRDRLNITVDHLEFAEDDLSHYTRLLRTMPRKGRVIYICSSPDAFRTLMLLALEAGLCGEDYVFFHLDIFGQSLQGGQGPAPRRPWERGDGQDVSARQAFQAAKIITYKDPDNPEYLEFLKQLKHLAYEQFNFTMEDGLVNTIPASFHDGLLLYIQAVTETLAHGGTVTDGENITQRMWNRSFQGVTGYLKIDSSGDRETDFSLWDMDPENGAFRVVLNYNGTSQELVAVSGRKLNWPLGYPPPDIPKCGFDNEDPACNQDHLSTLEVLALVGSLSLLGILIVSFFIYRKMQLEKELASELWRVRWEDVEPSSLERHLRSAGSRLTLSGRGSNYGSLLTTEGQFQVFAKTAYYKGNLVAVKRVNRKRIELTRKVLFELKHMRDVQNEHLTRFVGACTDPPNICILTEYCPRGSLQDILENESITLDWMFRYSLTNDIVKGMLFLHNGAICSHGNLKSSNCVVDGRFVLKITDYGLESFRDLDPEQGHTVYAKKLWTAPELLRMASPPVRGSQAGDVYSFGIILQEIALRSGVFHVEGLDLSPKEIIERVTRGEQPPFRPSLALQSHLEELGLLMQRCWAEDPQERPPFQQIRLTLRKFNRENSSNILDNLLSRMEQYANNLEELVEERTQAYLEEKRKAEALLYQILPHSVAEQLKRGETVQAEAFDSVTIYFSDIVGFTALSAESTPMQVVTLLNDLYTCFDAVIDNFDVYKVETIGDAYMVVSGLPVRNGRLHACEVARMALALLDAVRSFRIRHRPQEQLRLRIGIHTGPVCAGVVGLKMPRYCLFGDTVNTASRMESNGEALKIHLSSETKAVLEEFGGFELELRGDVEMKGKGKVRTYWLLGERGSSTRG”: the “percentage of EdU-negative” value in the series on MCF7 (setting [1]) turned out to be 23.4 ± 0.38%; in the series with MCF7 (setting [2]) it was 29.51 ± 0.041%; with hTERT-HMEC (setting [1]), 4.49 ± 0.51%; with hTERT-HMEC (setting [2]) it was 7.62 ± 0.42%.

As for “MPGPRVWGKYLWRSPHSKGCPGAMWWLLLWGVLQACPTRGSVLLAQELPQQLTSPGYPEPYGKGQESSTDIKAPEGFAVRLVFQDFDLEPSQDCAGDSVTISFVGSDPSQFCGQQGSPLGRPPGQREFVSSGRSLRLTFRTQPSSENKTAHLHKGFLALYQTVAVNYSQPISEASRGSEAINAPGDNPAKVQNHCQEPYYQAAAAGALTCATPGTWKDRQDGEEVLQCMPVCGRPVTPIAQNQTTLGSSRAKLGNFPWQAFTSIHGRGGGALLGDRWILTAAHTIYPKDSVSLRKNQSVNVFLGHTAIDEMLKLGNHPVHRVVVHPDYRQNESHNFSGDIALLELQHSIPLGPNVLPVCLPDNETLYRSGLLGYVSGFGMEMGWLTTELKYSRLPVAPREACNAWLQKRQRPEVFSDNMFCVGDETQRHSVCQGDSGSVYVVWDNHAHHWVATGIVSWGIGCGEGYDFYTKVLSYVDWIKGVMNGKN [Q9NZP8]”, the “percentage of EdU-negative” value was 25.9 ± 0.29% with MCF7 (setting [3]), 26.4 ± 0.027% in the series on MCF7 (protein concentration 0.205 µM), 6.35 ± 0.51% in the series on hTERT-HMEC (setting [3]) and 7.52 ± 1.6% in the series on hTERT-HMEC (protein concentration 0.205 µM).

Consider “MPGPSPGLRRALLGLWAALGLGLFGLSAVSQEPFWADLQPRVAFVERGGSLWLNCSTNCPRPERGGLETSLRRNGTQRGLRWLARQLVDIREPETQPVCFFRCARRTLQARGLIRTFQRPDRVELMPLPPWQPVGENFTLSCRVPGAGPRASLTLTLLRGAQELIRRSFAGEPPRARGAVLTATVLARREDHGANFSCRAELDLRPHGLGLFENSSAPRELRTFSLSPDAPRLAAPRLLEVGSERPVSCTLDGLFPASEARVYLALGDQNLSPDVTLEGDAFVATATATASAEQEGARQLVCNVTLGGENRETRENVTIYSFPAPLLTLSEPSVSEGQMVTVTCAAGAQALVTLEGVPAAVPGQPAQLQLNATENDDRRSFFCDATLDVDGETLIKNRSAELRVLYAPRLDDSDCPRSWTWPEGPEQTLRCEARGNPEPSVHCARSDGGAVLALGLLGPVTRALSGTYRCKAANDQGEAVKDVTLTVEYAPALDSVGCPERITWLEGTEASLSCVAHGVPPPDVICVRSGELGAVIEGLLRVAREHAGTYRCEATNPRGSAAKNVAVTVEYGPRFEEPSCPSNWTWVEGSGRLFSCEVDGKPQPSVKCVGSGGATEGVLLPLAPPDPSPRAPRIPRVLAPGIYVCNATNRHGSVAKTVVVSAESPPEMDESTCPSHQTWLEGAEASALACAARGRPSPGVRCSREGIPWPEQQRVSREDAGTYHCVATNAHGTDSRTVTVGVEYRPVVAELAASPPGGVRPGGNFTLTCRAEAWPPAQISWRAPPGALNIGLSSNNSTLSVAGAMGSHGGEYECAATNAHGRHARRITVRVAGPWLWVAVGGAAGGAALLAAGAGLAFYVQSTACKKGEYNVQEAESSGEAVCLNGAGGGAGGAAGAEGGPEAAGGAAESPAEGEVFAIQLTSA [Q9UMF0]”, for which the “percentage of EdU-negative” value in the series with MCF7 (protein concentration 0.015 µM) amounted to 26.9 ± 2.4%; with MCF7 (protein concentration 0.15 µM) it was 36.9 ± 2.7%; in the series with hTERT-HMEC (protein concentration 0.015 µM), 5.32 ± 0.067%; in the series with hTERT-HMEC (protein concentration 0.15 µM) it was 90.88 ± 0.53%.

As to “MPGPWLLLALALTLNLTGVPGGRAQPEAAQQEAVTAAEHPGLDDFLRQVERLLFLRENIQRLQGDQGEHSASQIFQSDWLSKRQHPGKREEEEEEGVEEEEEEEGGAVGPHKRQHPGRREDEASWSVDVTQHKRQHPGRRSPWLAYAVPKRQHPGRRLADPKAQRSWEEEEEEEEREEDLMPEKRQHPGKRALGGPCGPQGAYGQAGLLLGLLDDLSRSQGAEEKRQHPGRRAAWVREPLEE”, the “percentage of EdU-negative” value in the series on MCF7 (setting [4]) turned out to be 23.3 ± 4.8%; in the series on MCF7 (setting [5]), 25.8 ± 1.8%; in the series with hTERT-HMEC (setting [4]), 5.72 ± 0.18%; in the series with hTERT-HMEC (setting [5]), 5.31 ± 0.67%.

(Values after the supplement of paper PMC11316812.)
